Data from patent publication US11965032.

How the values were obtained:
[1] = target: FcγRIIIa 158V receptor (SPR assay) (UniProt P08637); test: SPR, receptor amine-coupled to the chip, antibody injected, 1:1 kinetics
[2] = target: FcγRIIB/C (human Fc receptor panel, Octet) (human) (UniProt P31994); test: BLI (Octet HTX), receptor on anti-penta-His biosensor, 1:1 model
[3] = target: FcγRI (human Fc receptor panel, Octet) (human) (UniProt P12314); test: as above
[4] = target: FcRn (human Fc receptor panel, Octet) (human) (UniProt P55899); test: as above
Chain of FcRn (human Fc receptor panel, Octet) (human) (P55899 24-297 limits assumed, chain 1 of 2): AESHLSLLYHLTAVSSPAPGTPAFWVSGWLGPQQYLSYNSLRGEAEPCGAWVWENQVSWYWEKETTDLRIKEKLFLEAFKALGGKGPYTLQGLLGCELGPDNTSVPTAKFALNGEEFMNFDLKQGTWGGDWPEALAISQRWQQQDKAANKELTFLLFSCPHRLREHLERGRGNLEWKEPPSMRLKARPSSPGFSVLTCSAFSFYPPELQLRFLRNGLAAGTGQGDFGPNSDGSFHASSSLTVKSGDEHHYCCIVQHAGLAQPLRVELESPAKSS
Chain of FcRn (human Fc receptor panel, Octet) (human) (P61769 21-119 limits assumed, chain 2 of 2, further chain): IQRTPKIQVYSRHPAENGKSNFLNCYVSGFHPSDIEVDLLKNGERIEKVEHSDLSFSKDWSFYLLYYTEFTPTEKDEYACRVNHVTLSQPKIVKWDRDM

[5] = target: FcγRIIIA F158 (human Fc receptor panel, Octet) (human) (UniProt P08637); test: as above
Chain of FcγRIIIA F158 (human Fc receptor panel, Octet) (human) (P08637 17-208 limits assumed): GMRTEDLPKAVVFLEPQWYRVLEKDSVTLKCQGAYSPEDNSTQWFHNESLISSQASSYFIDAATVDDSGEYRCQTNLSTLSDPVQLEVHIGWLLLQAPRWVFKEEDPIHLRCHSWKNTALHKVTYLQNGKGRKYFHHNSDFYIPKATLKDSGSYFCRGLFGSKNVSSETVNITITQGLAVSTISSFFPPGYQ

[6] = target: FcγRIIIB (human Fc receptor panel, Octet) (human) (UniProt O75015); test: as above
Chain of FcγRIIIB (human Fc receptor panel, Octet) (human) (O75015 17-200 limits assumed): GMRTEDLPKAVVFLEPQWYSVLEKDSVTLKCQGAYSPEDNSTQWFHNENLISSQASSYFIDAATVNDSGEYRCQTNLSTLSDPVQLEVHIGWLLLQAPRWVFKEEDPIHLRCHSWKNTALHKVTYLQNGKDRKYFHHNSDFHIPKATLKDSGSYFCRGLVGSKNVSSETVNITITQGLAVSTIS

[7] = target: FcγRIIA (human Fc receptor panel, Octet) (human) (UniProt P12318); test: as above
Chain of FcγRIIA (human Fc receptor panel, Octet) (human) (P12318 36-218 limits assumed): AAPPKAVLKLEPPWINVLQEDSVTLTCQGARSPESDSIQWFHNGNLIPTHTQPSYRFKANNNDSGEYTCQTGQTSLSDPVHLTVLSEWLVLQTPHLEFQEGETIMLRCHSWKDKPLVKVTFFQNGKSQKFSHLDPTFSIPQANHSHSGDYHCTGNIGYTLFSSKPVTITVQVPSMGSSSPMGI

[8] = target: FcγRIIIA V158 (human Fc receptor panel, Octet) (human) (UniProt P08637); test: as above
Chain of FcγRIIIA V158 (human Fc receptor panel, Octet) (human) (P08637 17-208 F176V limits assumed): as the sequence (P08637 17-208 limits assumed) above, with F160V counted along it

[9] = target: FcγIIIA Receptor on the effector cells (human) (UniProt P08637); test: cell-based or functional assay
Chain of FcγIIIA Receptor on the effector cells (human) (P08637 17-254): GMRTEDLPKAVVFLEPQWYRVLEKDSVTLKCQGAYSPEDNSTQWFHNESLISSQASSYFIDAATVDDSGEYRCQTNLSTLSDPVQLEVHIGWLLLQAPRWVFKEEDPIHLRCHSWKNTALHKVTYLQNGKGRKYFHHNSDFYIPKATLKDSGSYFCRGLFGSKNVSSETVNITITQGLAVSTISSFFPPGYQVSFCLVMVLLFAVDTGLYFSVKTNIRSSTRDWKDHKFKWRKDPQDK

[10] = target: FcγRIIIa 158F receptor (SPR assay) (UniProt P08637); test: SPR, relative to the TG-1101 reference standard
Chain of FcγRIIIa 158F receptor (SPR assay) (P08637 17-208 limits assumed): as the sequence (P08637 17-208 limits assumed) above

[11] = target: FcγRIIIa 158V receptor (SPR assay) (UniProt P08637); test: SPR, relative to the TG-1101 reference standard
[12] = target: FcγRIIIa 158F receptor (SPR assay) (UniProt P08637); test: SPR, receptor amine-coupled to the chip, antibody injected, steady state affinity
[13] = target: CD20 on Jeko-1, Raji and Daudi cells (human) (UniProt P11836); test: cell-based MSD electrochemiluminescence binding assay on CD20 expressing Jeko-1 cells
Chain of CD20 on Jeko-1, Raji and Daudi cells (human) (P11836 whole entry): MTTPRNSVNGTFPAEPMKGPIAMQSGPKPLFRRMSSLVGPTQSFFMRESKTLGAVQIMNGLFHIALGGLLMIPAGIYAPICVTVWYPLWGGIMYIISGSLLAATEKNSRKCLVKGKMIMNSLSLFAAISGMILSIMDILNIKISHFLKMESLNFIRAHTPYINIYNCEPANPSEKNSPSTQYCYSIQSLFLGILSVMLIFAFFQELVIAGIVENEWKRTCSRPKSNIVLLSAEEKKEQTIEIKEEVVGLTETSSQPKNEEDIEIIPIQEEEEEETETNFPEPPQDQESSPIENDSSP

[14] = target: C1q in the complement system (rabbit serum as the source of complement) (rabbit); test: cell-based or functional assay
[15] = target: HRP conjugated human C1q (human) (UniProt P02745); test: ELISA, antibody coated on the plate, HRP conjugated human C1q
Chain of HRP conjugated human C1q (human) (P02745 23-245 limits assumed, chain 1 of 3): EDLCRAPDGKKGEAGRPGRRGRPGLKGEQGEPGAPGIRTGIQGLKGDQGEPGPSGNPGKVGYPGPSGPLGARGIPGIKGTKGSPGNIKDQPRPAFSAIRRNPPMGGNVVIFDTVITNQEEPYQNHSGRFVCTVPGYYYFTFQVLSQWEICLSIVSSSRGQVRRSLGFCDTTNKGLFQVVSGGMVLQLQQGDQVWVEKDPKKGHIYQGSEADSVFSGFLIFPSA
Chain of HRP conjugated human C1q (human) (P02746 28-253 limits assumed, chain 2 of 3, further chain): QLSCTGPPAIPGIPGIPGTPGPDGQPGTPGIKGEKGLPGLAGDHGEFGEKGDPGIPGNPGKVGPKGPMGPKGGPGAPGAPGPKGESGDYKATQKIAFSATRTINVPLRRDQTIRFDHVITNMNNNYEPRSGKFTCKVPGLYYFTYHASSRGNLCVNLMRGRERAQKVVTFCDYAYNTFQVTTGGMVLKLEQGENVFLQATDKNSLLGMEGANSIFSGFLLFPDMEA
Chain of HRP conjugated human C1q (human) (P02747 29-245 limits assumed, chain 3 of 3, further chain): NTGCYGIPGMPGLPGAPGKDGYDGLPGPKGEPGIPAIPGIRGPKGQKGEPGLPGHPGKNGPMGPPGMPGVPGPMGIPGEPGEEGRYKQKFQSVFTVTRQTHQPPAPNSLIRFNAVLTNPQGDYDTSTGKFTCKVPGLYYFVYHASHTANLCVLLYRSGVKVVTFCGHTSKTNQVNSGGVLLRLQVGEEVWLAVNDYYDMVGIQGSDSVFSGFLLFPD

Chain of FcγRI (human Fc receptor panel, Octet) (human) (P12314 16-288 limits assumed): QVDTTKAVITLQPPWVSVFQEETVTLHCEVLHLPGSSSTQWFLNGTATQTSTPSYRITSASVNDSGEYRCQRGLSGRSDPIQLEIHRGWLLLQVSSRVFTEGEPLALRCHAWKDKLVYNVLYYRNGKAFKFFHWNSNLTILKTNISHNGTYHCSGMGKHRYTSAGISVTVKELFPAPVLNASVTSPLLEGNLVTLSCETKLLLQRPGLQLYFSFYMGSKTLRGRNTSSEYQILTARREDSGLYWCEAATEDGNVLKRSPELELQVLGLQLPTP
Chain of FcγRIIIa 158V receptor (SPR assay) (P08637 17-208 F176V limits assumed): as the sequence (P08637 17-208 limits assumed) above, with F160V counted along it
Chain of FcγRIIB/C (human Fc receptor panel, Octet) (human) (P31994 46-217 limits assumed): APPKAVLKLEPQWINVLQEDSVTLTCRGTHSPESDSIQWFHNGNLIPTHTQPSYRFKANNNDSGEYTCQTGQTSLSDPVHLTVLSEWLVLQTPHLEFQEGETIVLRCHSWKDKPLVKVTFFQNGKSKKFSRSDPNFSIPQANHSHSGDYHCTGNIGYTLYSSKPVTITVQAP

Substance: GAZYVA (obinutuzumab) (antibody)
- Kd [1]: 242 nM
- Kd [2]: 225 nM
- Kd [3]: 26 nM
- Kd [4]: 39 nM
- Kd [5]: 98 nM
- Kd [6]: 277 nM
- Kd [7]: 281 nM
- Kd [8]: 40 nM
- ADCC EC50 (Raji target cells, KILR CD16a effector cells) [9]: 0.00658 ng/mL
- EC50 of ADCC assay Using Primary NK Cells (Raji target cells, LDH release) [9]: 19 µg/mL
- Relative Affinity (%) [10]: 37.6%
- Relative Binding (%) [10]: 33%
- Relative Affinity (%) [11]: 27.6%
- Relative Binding (%) [11]: 19.6%
- Kd [12]: 1790 nM
- EC50 [13]: 0.053 µg/mL

Substance: OCREVUS (ocrelizumab) (antibody)
- Kd [1]: 1030 nM
- Kd [2]: 362 nM
- Kd [3]: 19 nM
- Kd [4]: 62 nM
- Kd [5]: 592 nM
- Kd [6]: 2090 nM
- Kd [7]: 624 nM
- Kd [8]: 138 nM
- CDC EC50 (Jeko-1 cells, rabbit serum complement) [14]: 1.21 µg/mL
- ADCC EC50 (Raji target cells, KILR CD16a effector cells) [9]: 0.0608 ng/mL
- EC50 [15]: 2.9 µg/mL
- Kd [12]: 6760 nM

Substance: ARZERRA (ofatumumab) (antibody)
- Kd [1]: 1640 nM
- Kd [2]: 156 nM
- Kd [3]: 21 nM
- Kd [4]: 64 nM
- Kd [5]: 482 nM
- Kd [6]: 307 nM
- Kd [7]: 232 nM
- Kd [8]: 207 nM
- CDC EC50 (Jeko-1 cells, rabbit serum complement) [14]: 0.353 µg/mL
- ADCC EC50 (Raji target cells, KILR CD16a effector cells) [9]: 0.0741 ng/mL
- EC50 of ADCC assay Using Primary NK Cells (Raji target cells, LDH release) [9]: 500 µg/mL
- Kd [12]: 14800 nM
- EC50 [13]: 0.092 µg/mL

Substance: RITUXAN (rituximab) (antibody)
- Kd [1]: 1200 nM
- Kd [2]: 211 nM
- Kd [3]: 15 nM
- Kd [4]: 43 nM
- Kd [6]: 309 nM
- Kd [7]: 253 nM
- CDC EC50 (Jeko-1 cells, rabbit serum complement) [14]: 0.245 µg/mL
- ADCC EC50 (Raji target cells, KILR CD16a effector cells) [9]: 5.46 ng/mL
- EC50 of ADCC assay Using Primary NK Cells (Raji target cells, LDH release) [9]: 1390 µg/mL
- Kd [12]: 6960 nM
- EC50 [13]: 0.133 µg/mL
